# Assay results reported in US20210246166A1 (Bayer, published 2021).
# Bridge positions count the residues as written; N and C are the ends. Square brackets hold non-standard residues; d marks the D form. Ends that are not written are not given here. Pro(4-spirocPr) = O=C(O)[C@@H]1CC2(CC2)CN1; Oic = O=C(O)[C@@H]1C[C@@H]2CCCC[C@@H]2N1; tBuAla = CC(C)(C)C[C@H](N)C(=O)O; PEG4 = NCCOCCOCCOCCOCCC(=O)O; Pen = CC(C)(S)[C@H](N)C(=O)O; NMeA = CN[C@@H](C)C(=O)O; Sar = CNCC(=O)O
# T1: recombinant human MASP1 active protease (amino acids 297-699, C-terminal His Tag) (human, UniProt P48740 297-699)
# T1 sequence: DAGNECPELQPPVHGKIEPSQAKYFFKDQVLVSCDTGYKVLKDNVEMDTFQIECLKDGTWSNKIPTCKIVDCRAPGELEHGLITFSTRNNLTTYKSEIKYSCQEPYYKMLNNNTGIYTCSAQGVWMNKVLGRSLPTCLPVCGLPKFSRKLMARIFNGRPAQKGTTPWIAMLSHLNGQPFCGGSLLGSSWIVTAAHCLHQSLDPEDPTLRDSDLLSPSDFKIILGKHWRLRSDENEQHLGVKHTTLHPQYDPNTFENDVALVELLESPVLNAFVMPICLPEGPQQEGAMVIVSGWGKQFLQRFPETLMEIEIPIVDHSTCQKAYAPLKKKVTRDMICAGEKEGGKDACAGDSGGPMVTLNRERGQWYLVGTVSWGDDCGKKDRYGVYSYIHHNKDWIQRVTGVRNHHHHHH
# B1: ((N-Me)G)-IC+SRS-((tBu)A)-PPI-(Pen)+IP-(PEG3(16atoms))-NH2 (peptide)
# peptide: [Sar]ICSRS[tBuAla]PPI[Pen]IP[PEG4]-NH2
# modifications: disulfide 3-11; N-terminus assumed
# SMILES: CC[C@H](C)[C@H](NC(=O)CNC)C(=O)N[C@H]1CSSC(C)(C)[C@@H](C(=O)N[C@H](C(=O)N2CCC[C@H]2C(=O)NCCOCCOCCOCCOCCC(N)=O)[C@@H](C)CC)NC(=O)[C@H]([C@@H](C)CC)NC(=O)[C@@H]2CCCN2C(=O)[C@@H]2CCCN2C(=O)[C@H](CC(C)(C)C)NC(=O)[C@H](CO)NC(=O)[C@H](CCCNC(=N)N)NC(=O)[C@H](CO)NC1=O
# B2: AIC+SRS-((tBu)A)-P-(Oic)-I-(Pen)+IPD-OH (peptide)
# peptide: AICSRS[tBuAla]P[Oic]I[Pen]IPD-OH
# modifications: disulfide 3-11; N-terminus assumed
# SMILES: CC[C@H](C)[C@H](NC(=O)[C@H](C)N)C(=O)N[C@H]1CSSC(C)(C)[C@@H](C(=O)N[C@H](C(=O)N2CCC[C@H]2C(=O)N[C@@H](CC(=O)O)C(=O)O)[C@@H](C)CC)NC(=O)[C@H]([C@@H](C)CC)NC(=O)[C@@H]2C[C@@H]3CCCC[C@@H]3N2C(=O)[C@@H]2CCCN2C(=O)[C@H](CC(C)(C)C)NC(=O)[C@H](CO)NC(=O)[C@H](CCCNC(=N)N)NC(=O)[C@H](CO)NC1=O
# B3: AIC+SRSLP-(Oic)-IC+IPD-OH (peptide)
# peptide: AICSRSLP[Oic]ICIPD-OH
# modifications: disulfide 3-11; N-terminus assumed
# SMILES: CC[C@H](C)[C@H](NC(=O)[C@H](C)N)C(=O)N[C@H]1CSSC[C@@H](C(=O)N[C@H](C(=O)N2CCC[C@H]2C(=O)N[C@@H](CC(=O)O)C(=O)O)[C@@H](C)CC)NC(=O)[C@H]([C@@H](C)CC)NC(=O)[C@@H]2C[C@@H]3CCCC[C@@H]3N2C(=O)[C@@H]2CCCN2C(=O)[C@H](CC(C)C)NC(=O)[C@H](CO)NC(=O)[C@H](CCCNC(=N)N)NC(=O)[C@H](CO)NC1=O
# B4: ((N-Me)A)-IC+SRSLP-(Oic)-I-(Pen)+I-NH2 (peptide)
# peptide: [NMeA]ICSRSLP[Oic]I[Pen]I-NH2
# modifications: disulfide 3-11; N-terminus assumed
# SMILES: CC[C@H](C)[C@H](NC(=O)[C@H]1NC(=O)[C@H]([C@@H](C)CC)NC(=O)[C@@H]2C[C@@H]3CCCC[C@@H]3N2C(=O)[C@@H]2CCCN2C(=O)[C@H](CC(C)C)NC(=O)[C@H](CO)NC(=O)[C@H](CCCNC(=N)N)NC(=O)[C@H](CO)NC(=O)[C@@H](NC(=O)[C@@H](NC(=O)[C@H](C)NC)[C@@H](C)CC)CSSC1(C)C)C(N)=O
# B5: AIC+SRSLP-((6S)-5-Azaspiro[2.4]heptane-6-carboxylic acid)-I-(Pen)+IPD-NH2 (peptide)
# peptide: AICSRSLP[Pro(4-spirocPr)]I[Pen]IPD-NH2
# modifications: disulfide 3-11; N-terminus assumed
# SMILES: CC[C@H](C)[C@H](NC(=O)[C@H](C)N)C(=O)N[C@H]1CSSC(C)(C)[C@@H](C(=O)N[C@H](C(=O)N2CCC[C@H]2C(=O)N[C@@H](CC(=O)O)C(N)=O)[C@@H](C)CC)NC(=O)[C@H]([C@@H](C)CC)NC(=O)[C@@H]2CC3(CC3)CN2C(=O)[C@@H]2CCCN2C(=O)[C@H](CC(C)C)NC(=O)[C@H](CO)NC(=O)[C@H](CCCNC(=N)N)NC(=O)[C@H](CO)NC1=O
# Target: T1, recombinant human MASP1 active protease …
# Test: cell-based or functional assay
row,human MASP1 IC50 [nM],Binder
1,1.3,B1
2,1.3,B2
3,1.3,[2‑(Pyrrolidine)acetyl]ICSRS[tBuAla]PPI[Pen]IPD-NH2 (disulfide 3-11) [(2-(Pyrrolidine)acetyl)-IC+SRS-((tBu)A)-PPI-(Pen)+IPD-NH2]
4,4.65,B3
5,3.75,B4
6,1.33,B5

# Target: recombinant human MASP2 active protease (amino acids 297-686, C-terminal His Tag) (human, UniProt O00187 297-686)
# Sequence (O00187 other isoform, or with tags, fused parts or gaps limits assumed): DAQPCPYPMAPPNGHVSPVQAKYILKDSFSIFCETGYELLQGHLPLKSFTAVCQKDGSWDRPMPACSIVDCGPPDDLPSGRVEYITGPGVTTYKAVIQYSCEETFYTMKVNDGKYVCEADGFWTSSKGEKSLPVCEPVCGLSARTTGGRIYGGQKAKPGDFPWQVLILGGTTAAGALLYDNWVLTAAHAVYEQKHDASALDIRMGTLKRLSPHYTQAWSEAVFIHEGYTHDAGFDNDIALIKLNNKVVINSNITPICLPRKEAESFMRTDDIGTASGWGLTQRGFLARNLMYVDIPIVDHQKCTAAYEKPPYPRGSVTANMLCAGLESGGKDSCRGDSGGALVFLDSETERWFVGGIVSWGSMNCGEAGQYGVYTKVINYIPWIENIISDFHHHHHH
# Test: cell-based or functional assay
row,human MASP2 IC50 [nM],Binder
1,28,B1
2,62,B2
3,87,[2‑(Pyrrolidine)acetyl]ICSRS[tBuAla]PPI[Pen]IPD-NH2 (disulfide 3-11) [(2-(Pyrrolidine)acetyl)-IC+SRS-((tBu)A)-PPI-(Pen)+IPD-NH2]
4,316,B3
5,195,B4
6,18,B5
